Measurements from US20220282217A1 (BIONTECH US, published 2022).

Assays:
HLA-A03.01 [1] = target: T1, HLA-A03.01 (human); test: competition with radiolabeled reference peptide, purified MHC I
T1 construct: Purified class I MHC
Description: (§1) Peptides were incubated at varying concentrations with these complexes for 2 days, and the amount of remaining radiolabeled peptide bound to […] was measured using size exclusion gel-filtration.

HLA-A11.01 [2] = target: T2, HLA-A11.01 (human); test: as above
T2 construct: Purified class I MHC
Description: as §1

HLA-A01.01 = target: T3, HLA-A01.01 (human); test: as above
T3 construct: Purified class I MHC
Description: as §1

HLA-B08.01 [3] = target: T4, HLA-B08.01 (human); test: pMHC-I complex dissociation at 37 C, 125I-b2m, half-life
T4 construct: As for HLA-A02.01
Method in brief: (§2)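 Biotinylated MHC-I heavy chain made in E. coli, captured on streptavidin plates and complexed with peptide and radiolabelled light chain. Dissociation started with excess unlabelled light chain at 37 °C. Stability is the half-life in hours from scintillation counts.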

HLA-A02.01 [4] = target: HLA-A02.01 (human); test: as above
Method in brief: as §2

HLA-B08.01 [5] = target: T4, HLA-B08.01; test: competition vs radiolabeled reference peptide on purified MHC I, gel filtration
Description: as §1

HLA-A02.01 [6] = target: HLA-A02.01 (human); test: as above
Description: as §1

[7] = target: HLA-B08:01 class I MHC molecule (human); test: pMHC-I dissociation at 37 C, 125I-labeled b2m, scintillation counts
Description: (§3) Briefly, synthetic genes encoding biotinylated MHC-I heavy and light chains are expressed in E. coli and purified from inclusion bodies using standard methods. […] These reactions are carried out in streptavidin coated microplates to bind the biotinylated MHC-I heavy chains to the surface and allow measurement of radiolabeled light chain to monitor complex formation. Dissociation is initiated by addition of higher concentrations of unlabeled light-chain and incubation at 37° C. Stability is defined as the length of time in hours it takes for half of the complexes to dissociate, as measured by scintillation counts.

HLA-A03.01 [8] = target: T5, HLA-A03.01 (human); test: pMHC-I complex dissociation at 37 C, 125I-b2m, half-life
T5 construct: As for HLA-A02.01
Method in brief: as §2

HLA-A03.01 [9] = target: T5, HLA-A03.01; test: competition vs radiolabeled reference peptide on purified MHC I, gel filtration
Description: as §1

HLA-B*40:02 = HLA-B*40:02 (human); test: peptides eluted from HLA-peptide complexes by acid wash, targeted MS/MS (PRM); 293T cells transduced with GATA3 neoORF, expressing HLA-B*40:02
Description: (§4) Between 50 and 700 million of the transduced cells expressing peptides encoded by the GATA3 neoORF sequence were cultured and peptides were eluted from HLA-peptide complexes using an acid wash. Eluted peptides were then analyzed by targeted MS/MS using PRM.

[10] = target: T6, HLA class I molecule A02.01; test: competition with radiolabeled reference peptide on purified MHC I
T6 construct: Purified MHC class I complex; also called HLA-A02:01
Description: as §1

[11] = target: T6, HLA class I molecule A02.01; test: pMHC-I dissociation assay with 125I-labeled beta2m light chain at 37 C, scintillation counts; time in hours for half of the complexes to dissociate
Description: as §3

HLA-B07.02 [12] = target: T7, HLA-B07.02 (human); test: pMHC-I complex dissociation at 37 C, 125I-b2m, half-life
T7 construct: As for HLA-A02.01
Method in brief: as §2

HLA-B07.02 [13] = target: T7, HLA-B07.02; test: competition vs radiolabeled reference peptide on purified MHC I, gel filtration
Description: as §1

HLA-A03.01 [14] = target: T1, HLA-A03.01; test: pMHC-I dissociation half-life, 125I-b2m
Method in brief: as §2

HLA-A11.01 [15] = target: T2, HLA-A11.01; test: pMHC-I dissociation half-life, 125I-b2m
Method in brief: as §2

HLA-A24.02 = target: T8, HLA-A24.02 (human); test: competition with radiolabeled reference peptide, purified MHC I
T8 construct: Purified class I MHC
Description: as §1

HLA-A*30:02 = HLA-A*30:02 (human); test: peptides eluted from HLA-peptide complexes by acid wash, targeted MS/MS (PRM); 293T cells transduced with GATA3 neoORF, expressing HLA-A*30:02
Description: as §4

[16] = target: T9, HLA class I molecule B07.02; test: pMHC-I dissociation half-life, 125I-b2m
T9 construct: Purified MHC class I complex; also called HLA-B07:02
Method in brief: as §2

[17] = target: T6, HLA class I molecule A02.01; test: pMHC-I dissociation half-life, 125I-b2m
Method in brief: as §2

[18] = target: T10, HLA class I molecule A24.02; test: pMHC-I dissociation half-life, 125I-b2m
T10 construct: Purified MHC class I complex; also called HLA-A24:02
Method in brief: as §2

[19] = target: T9, HLA class I molecule B07.02; test: competition with radiolabeled reference peptide on purified MHC I
Description: as §1

[20] = target: T10, HLA class I molecule A24.02; test: as above
Description: as §1

[21] = target: T6, HLA class I molecule A02.01; test: competition binding assay with purified class I MHC: test peptide at varying concentrations displaces a radiolabeled reference peptide, read by size exclusion gel filtration; column 'Observed MHC Affinity (nM)'
Description: as §1

[22] = target: HLA-A03:01 class I MHC molecule (human); test: competition with a radiolabeled reference peptide for purified MHC I, gel filtration; 'Affinity (nM)'
Description: as §1

[23] = target: HLA-A11:01 class I MHC molecule (human); test: competition with a radiolabeled reference peptide for purified MHC I, gel filtration; 'Affinity (nM)'; affinity assay, column 'Affinity (nM)'
Description: as §1

[24] = target: T11, HLA-A01:01 class I MHC molecule (human); test: pMHC-I dissociation at 37 C, 125I-labeled b2m, scintillation counts
T11 construct: heavy chain biotinylated and made in E. coli in the stability assay
Description: as §3

[25] = target: HLA-A03:01 class I MHC molecule (human); test: as above
Description: as §3

[26] = target: T12, HLA class I molecule A03.01; test: competition with radiolabeled reference peptide on purified MHC I
T12 construct: Purified MHC class I complex; also called HLA-A03:01
Description: as §1

[27] = target: T12, HLA class I molecule A03.01; test: pMHC-I dissociation assay with 125I-labeled beta2m light chain at 37 C, scintillation counts; time in hours for half of the complexes to dissociate
Description: as §3

HLA-A11.01 [28] = target: T2, HLA-A11.01; test: as above
Description: as §3

HLA-A11.01 [29] = target: T2, HLA-A11.01; test: competition binding assay with purified class I MHC: test peptide at varying concentrations displaces a radiolabeled reference peptide, read by size exclusion gel filtration; column 'Observed MHC Affinity (nM)'
Description: as §1

[30] = target: T13, HLA class I molecule B08.01; test: pMHC-I dissociation half-life, 125I-b2m
T13 construct: Purified MHC class I complex; also called HLA-B08:01
Method in brief: as §2

AMTTSSSQK (also called TGFBR2(-1))
IC50 (HLA-A03.01 [1]): 8.3 nM | IC50 (HLA-A11.01 [2]): 162 nM

VMSDTTYKIY (also called TTK(-1))
IC50 (HLA-A01.01): 376 nM

SLKKVPALK (also called SMAP1(-1))
IC50 (HLA-A03.01 [1]): 4.4 nM | IC50 (HLA-A11.01 [2]): 129 nM

SAMTTSSSQK (also called TGFBR2(-1))
IC50 (HLA-A03.01 [1]): 15.7 nM | IC50 (HLA-A11.01 [2]): 15.8 nM

LATEKSRWS (also called BRAF, V600E)
Stability (T1/2 (h)) (HLA-B08.01 [3]): 0 h | Stability (T1/2 (h)) (HLA-A02.01 [4]): 0 h | IC50 (HLA-B08.01 [5]): 37000 nM | IC50 (HLA-A02.01 [6]): 61000 nM

MANGSLLNYL [BTK_C481S peptide MANGSLLNYL]
Stability (half-life (hr.)) [7]: 0 h

KLFSCLSFL (also called C15ORF40(+1))
Stability (T1/2 (h)) (HLA-A03.01 [8]): 0.8 h | Stability (T1/2 (h)) (HLA-A02.01 [4]): 14.3 h | IC50 (HLA-A03.01 [9]): 308 nM | IC50 (HLA-A02.01 [6]): 6 nM

AESKIMFAT [GATA3 neoORF peptide AESKIMFAT]
binding result (HLA-B*40:02): binds

MLTGPPARV (also called GATA3 . . ; CSNH)
IC50 [10]: 10.6 nM | Observed MHC Stability [11]: 5.8 h

B1: KLSDSRTAL (peptide)
peptide: KLSDSRTAL
notes: also called FRG1B, I1OT (so in the source); FRG1B, I10T
Stability (T1/2 (h)) (HLA-B07.02 [12]): 6.8 h | Stability (T1/2 (h)) (HLA-A02.01 [4]): 2.8 h | IC50 (HLA-B07.02 [13]): 9 nM

VVGACGVGK (also called KRAS, G12C)
Measured stability (HLA-A03.01 [14]): 5 h | Measured stability (HLA-A11.01 [15]): 10 h

VVGADGVGK (also called KRAS, G12D)
Measured stability (HLA-A11.01 [15]): 3.4 h

AESKIMFATL [GATA3 neoORF peptide AESKIMFATL]
binding result (HLA-B*40:02): binds

KLRSPLWIF (also called SMAP1(-1))
IC50 (HLA-A24.02): 828 nM

SIMKPKRDGY [GATA3 neoORF peptide SIMKPKRDGY]
binding result (HLA-A*30:02): binds

YPAYSKDSGL (also called β2M, . . ; SIRH)
IC50 (HLA-B07.02 [13]): 79.5 nM

ALSASNSCF (also called FRG1B, L52S)
Stability (T1/2 (h)) [16]: 0 h | Stability (T1/2 (h)) [17]: 0.3 h | Stability (T1/2 (h)) [18]: 0.2 h | IC50 [19]: 684 nM | IC50 [10]: 728 nM | IC50 [20]: 16300 nM

KISNWSLKK (also called SMAP1(-1))
IC50 (HLA-A03.01 [1]): 8.8 nM | IC50 (HLA-A11.01 [2]): 9.8 nM

WLHKRGKYI (also called AKT1, E17K)
Stability (T1/2 (h)) (HLA-B08.01 [3]): 1.3 h | IC50 (HLA-B08.01 [5]): 417 nM

LATEKSRWSG (also called BRAF, V600E)
Stability (T1/2 (h)) (HLA-B08.01 [3]): 0 h | Stability (T1/2 (h)) (HLA-A02.01 [4]): 0 h | IC50 (HLA-B08.01 [5]): 46600 nM | IC50 (HLA-A02.01 [6]): 23300 nM

SMLTGPPARV (also called GATA3 . . ; CSNH)
Stability (T1/2 (h)) [17]: 21.7 h | IC50 [21]: 14 nM

VVVGADGVGK (also called KRAS, G12D)
Measured stability (HLA-A03.01 [14]): 2.3 h | Measured stability (HLA-A11.01 [15]): 13 h

VVVGAVGVGK (also called KRAS, G12V)
Measured stability (HLA-A03.01 [14]): 6.7 h | Measured stability (HLA-A11.01 [15]): 24.3 h

VPLYGLLLEM (also called ESR1, D538G)
IC50 (HLA-B07.02 [13]): 27.9 nM

MSDTTYKIY (also called TTK(-1))
IC50 (HLA-A01.01): 10.2 nM

MANGSLLNY [BTK, C481S peptide MANGSLLNY]
IC50 [22]: 35.6 nM | IC50 [23]: 536 nM | Stability (half-life (hr.)) [24]: 13 min | Stability (half-life (hr.)) [25]: 14.3 min

KIMFATLQR (also called GATA3 . . ; CSNH)
IC50 [26]: 2.5 nM | Observed MHC Stability [27]: 5.6 h | Observed MHC Stability (HLA-A11.01 [28]): 8.9 h | IC50 (HLA-A11.01 [29]): 23 nM

IMKPKRDGY [GATA3 neoORF peptide IMKPKRDGY]
binding result (HLA-A*30:02): binds

YMFLKAESK (also called GATA3 . . ; CSNH)
IC50 [26]: 79.8 nM | Observed MHC Stability [27]: 0.3 h

TLQRSSLWCL (also called GATA3 . . ; CSNH)
IC50 [10]: 118 nM | Observed MHC Stability [11]: 0.5 h

FLPSTLKSL (also called ESR1, S463P)
Stability (T1/2 (h)) (HLA-B08.01 [3]): 0 h | IC50 (HLA-B08.01 [5]): 1970 nM

FQMQPLSLM (also called JAK1(-1))
Stability (T1/2 (h)) [16]: 0 h | Stability (T1/2 (h)) [17]: 0.3 h | Stability (T1/2 (h)) [18]: 0 h | Stability (T1/2 (h)) [30]: 0 h | IC50 [10]: 553 nM | IC50 [20]: 14600 nM
